Source: patent publication US20260015434A1, “ANTIBODY MATERIALS AND METHODS TARGETING MICROBIAL POLYSACCHARIDES” (priority 2022, published 2026)
Changes are numbered by the printed parent chain. Names and notes keep the numbering of the source.

B1: TG10 W38A: TG10 HC W38A (SEQ ID NO: 47) with TG10 LC (SEQ ID NO: 12) (antibody, V domains shown)
VH: EVQLVESGGGLVQPGGSLRLSCAVSGFPFSSYAMSWVRQAPGKGLEWVANIKEDGSEKYYVDSVKGRFTISRDNAKNSLYLQMNSLRAEDTAVYYCATDPDVGLSDSWGQGTLVTVSS
VL: EIVLTQSPGTLSLSPGDRATHSCRASQSVSRSYLAWYQQKPGQTPRLFIYGASNRATGIPDRFSGSGSGTYFTLTISRLEPEDFAVYYCQQYDSAPDTFGQGTRLEIK
modifications: Site directed mutatation of TG10 HC Variable Region; TG10 Light Chain Variable Region
B2: TG10 LC Y38A: TG10 HC (SEQ ID NO: 3) with TG10 LC Y38A (SEQ ID NO: 43) (antibody, V domains shown)
VH: B1 VH with A33W
VL: EIVLTQSPGTLSLSPGDRATHSCRASQSVSRSALAWYQQKPGQTPRLFIYGASNRATGIPDRFSGSGSGTYFTLTISRLEPEDFAVYYCQQYDSAPDTFGQGTRLEIKLC
modifications: TG10 Heavy Chain Variable Region; Site directed mutation of TG10 LC Variable Region
B3: TG10 D109K: TG10 HC D109K (SEQ ID NO: 48) with TG10 LC (SEQ ID NO: 12) (antibody, V domains shown)
VH: B1 VH with A33W, D101K
VL: B1 VL
modifications: Site directed mutatation of TG10 HC Variable Region; TG10 Light Chain Variable Region
B4: TG10 LC D116A: TG10 HC (SEQ ID NO: 3) with TG10 LC D116A (SEQ ID NO: 49) (antibody, V domains shown)
VH: B1 VH with A33W
VL: B1 VL with D97A
modifications: TG10 Heavy Chain Variable Region; Site directed mutatation of TG10 HC Variable Region
B5: TG10 D107A: TG10 HC D107A (SEQ ID NO: 41) with TG10 LC (SEQ ID NO: 12) (antibody, V domains shown)
VH: B1 VH with A33W, D99A
VL: B1 VL
modifications: Site directed mutation of TG10 HC Variable Region; TG10 Light Chain Variable Region

Columns and labels:
TG10 binding to PNAG 0 = assay: Monosaccharide inhibition of antibody binding on the array
Procedure: (§1) This example describes how TG10 binding is inhibited by glucosamine. For small molecule inhibition assays, arrays were blocked and washed as previously described. Antibodies F598 and TG10 were diluted to 5 μg/mL in binding buffer. 20 mM N-Acetyl glucosamine and 20 mM glucosamine in binding buffer was prepared and an equal volume of the monosaccharide solutions were added to the diluted antibodies. Antibody/monosaccharide samples were incubated at room temperature for 30 min with rotation prior to being applied to the array. For the TG10 glucosamine IC50 inhibition assay, TG10 was diluted to 30 nM in binding buffer. A pH adjusted 1M stock of Glucosamine.HCl in PBS with 3% BSA (pH 7.2) was prepared and a serial dilution in binding buffer was made. Equal volumes of TG10 and each of the serial diluted glucosamine stocks was combined. Antibody/monosaccharide samples were incubated at RT for 30 min with rotation prior to being applied to the array.
(§2) Monosaccharide inhibition of both TG10 and F598 was studied on the array. The antibodies were incubated with 10 mM glucosamine, galactosamine, N-acetyl glucosamine, and N-acetyl galactosamine and then applied to the array. The binding of TG10 with PNAG 0 and of F598 with PNAG 31 were analyzed with and without monosaccharide inhibitors (FIGS. 5A-5D). Glucosamine had the greatest effect on TG10 binding to PNAG 0, reducing signal intensity by 94% at 10 mM […] (100% at 100 mM […]). As expected, N-acetyl glucosamine inhibited F598 binding with PNAG 31, reducing RFU by 74% at 10 mM GlcNAc and 99% at 100 mM GlcNAc. […] To further illuminate the small molecule inhibition properties of glucosamine on TG10, IC50 values for glucosamine was determined by titrating GlcNH2 with TG10.

[1] = tested on: F598 binding with PNAG 31; assay: as above
Procedure: as §1, §2

[2] = target: TG10 binding to PNAG 0, PNAG 1, and PNAG 16; assay: TG10 glucosamine IC50 inhibition assay on the array; details: three best binding conjugates on the array (PNAG 0, PNAG 1, PNAG 16); TG10 diluted to 30 nM
Procedure: as §1
Monosaccharide inhibition of both TG10 and F598 was studied on the array. […] The binding of TG10 with PNAG 0 and of F598 with PNAG 31 were analyzed with and without monosaccharide inhibitors (FIGS. 5A-5D). […] To further illuminate the small molecule inhibition properties of glucosamine on TG10, IC50 values for glucosamine was determined by titrating GlcNH2 with TG10.

[3] = tested on: PNAG conjugates on the array (dPNAG, PNAG and intermediate levels of deacetylation); assay: Neoglycoprotein (glycan) microarray binding, 816-component array; details: single point mutations
Procedure: (§3) Neoglycoprotein (NGP) microarray fabrication was performed as follows. Several NGP microarrays were constructed as previously described. Two large arrays (8 duplicate arrays per slide) composed of 815 and 870 neoglycoproteins, glycoproteins, glycopeptide conjugates, and controls were constructed and used for the experiments in this report. Additionally, a PNAG-focused array (16 duplicates per slide) with 49 array components was fabricated and used to determine apparent KD values. Array component parent stocks were diluted to 125-200 μg/mL into print buffer (1×PBS buffer with 2.5% (v/v) glycerol, 0.0005% (v/v) Triton-X 100, 0.0005 μg/mL soluble print dye 0.05 μg/mL Atto 532 (Sigma 06699). Formulated components were printed in duplicate onto 2D-Epoxy functionalized glass slides (Poly-An #104-00-221) or SuperEpoxy 2 microarray slides (ArrayIt) using an Arrayit NanoPrint LM60 arrayer at 60% humidity. Following the print, slides were scanned in a microarray fluorescence scanner (Innopsys, InnoScan 1100 AL) to validate that array components were successfully deposited onto the slide surface. Binding profiles for a representative set of lectins and antibodies were used as QC for each printed microarray batch. The printed NGP microarrays were stored under vacuum at −20° C.
(§4) Antibody selectivity and apparent KD were determined using a NGP microarray. A pre-assay scan was performed to control for missing features. Selectivity and affinity of most mAbs were measured on the full array. A focused array was used to acquire an apparent KD measurement. A slide module (8 well for full array and 16-well for focused array) was mounted onto each slide and blocking buffer (3% BSA in PBS, pH 7.4) was applied to each well of the array. Blocking was performed overnight at 4° C. mAbs were serial diluted in binding buffer (1% BSA in PBST, pH 7.4). Following the block, wells were washed 4× with wash buffer (PBST, PBS with 0.05% tween-20). Primary mAb incubation was performed for 2.5 hours at 37° C. The wells were washed 5× with wash buffer. A CY3-labeled secondary antibody specific for the Fc portion of human IgG was diluted 500 fold into binding buffer and added to each array well (Jackson ImmunoResearch, 109-165-098). Secondary mAb incubation was performed for 1.5 hours at 37° C. Wells were washed 5× with wash buffer. Slides were removed from the slide module and submerged in wash buffer for 5 minutes. Washed slides were dried by centrifugation @ 1000×g in a centrifuge quipped with a swing bucket rotor. Fluorescent scans were obtained at multiple PMT values to maximize dynamic range. Raw data was analyzed using GenePix 7.0 software as previously described. Selectivity profiles and apparent KD curves were plotted in excel and Graphpad Prism. Apparent Kos were determined using one-site specific binding algorithm in Graphpad Prism.

[4] = tested on: PNAG conjugates on the array (dPNAG, PNAG and intermediate levels of deacetylation); assay: as above; details: ability to bind both dPNAG and PNAG and intermediate levels of deacetylation
[5] = tested on: PNAG 0 (fully deacetylated glucosamine pentasaccharide conjugate); assay: Glycan microarray binding / apparent KD; details: fully deacetylated PNAG conjugate PNAG 0
Procedure: as §3, §4

Molecule | reduction of signal intensity of TG10 binding to PNAG 0 (TG10 binding to PNAG 0; 10 mM monosaccharide) | function of TG10 variant (binding to PNAG conjugates on the array) [3] | PNAG Binding on Array [4] | effect of single point mutation on binding between TG10 and PNAG 0 [5] | further results
N[C@H]1C(O)O[C@H](CO)[C@H](O)[C@@H]1O (stereo partly drawn) [galactosamine] | 45% | – | – | – | –
CC(=O)N[C@H]1C(O)O[C@H](CO)[C@H](O)[C@@H]1O (stereo partly drawn) [N-acetyl galactosamine] | unchanged | – | – | – | –
CC(=O)N[C@H]1C(O)O[C@H](CO)[C@@H](O)[C@@H]1O (stereo partly drawn) [N-acetyl glucosamine] | 15% | – | – | – | reduction of RFU of F598 binding with PNAG 31 ([1]; 10 mM monosaccharide): 74%; reduction of RFU of F598 binding with PNAG 31 ([1]; 100 mM monosaccharide): 99%
N[C@H]1C(O)O[C@H](CO)[C@@H](O)[C@@H]1O (stereo partly drawn) [glucosamine] | 94% | – | – | – | IC50 [2]: 1000 to 2000 µM; reduction of signal intensity of TG10 binding to PNAG 0 (TG10 binding to PNAG 0; 100 mM monosaccharide): 100%
B1 | – | functionally dead | No | completely removed binding | –
B2 | – | functionally dead | – | completely removed binding | –
B3 | – | functionally dead | No | completely removed binding | –
B4 | – | functionally dead | No | completely removed binding | –
B5 | – | functionally dead | – | completely removed binding | –
